The values that follow come from the supplement of paper PMC10201428.

± gives the standard deviation of the averaged measurements.

The subject of series [1] is VchCAST RNA-guided transposition machinery (E. coli BL21(DE3) host, lacZ target). Kind of series: relative integration efficiency (T-RL orientation) vs wild-type transposon end (log2 (normalized fold change)); transposon end mutated: right end (5 bp flank + 75 bp right end); higher = more efficient transposition. In a few lines:
(§1)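 Barcoded pools of 1549 left-end or 1849 right-end transposon variants were cloned into a pUC57 mini-transposon donor. Each pool was co-transformed with a T7-driven effector plasmid (CRISPR array, tniQ-cas8-cas7-cas6, tnsA-tnsB-tnsC) into E. coli BL21(DE3) and plated with 0.1 mM IPTG at 37°C for 18 h. Input plasmids and genomic integration junctions were PCR-amplified and Illumina-sequenced, with two biological output replicates and four wild-type barcodes as reference. Relative integration efficiency is output/input barcode abundance fold change, normalised to wild-type barcodes and log-transformed.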

For series [2] the test system is unchanged. Kind of series: relative integration efficiency (T-LR orientation) vs wild-type transposon end (log2 (normalized fold change)); transposon end mutated: right end (5 bp flank + 75 bp right end); higher = more efficient transposition. An outline of the steps:
as §1

On to “ACATTTGTTGATACAACCATAAAATGATAATTACACCCATAAATTGATAATTATCTGTGCCATAAATTGATATTGCCTCTGATCATAGTCAGACCAACATTGCTACGACCCGTATTCGCACCGACAC”, for which the “relative integration efficiency (log2)” value in series [1] is -0.555 ± 0.23; in series [2], 2.04 ± 0.1.
The like results for “ACATTTGTTGATACAACCATAAAATGATAATTACACCCATAAATTGATAATTATGACACCGAATTTAACTATAACGCTCTGATCATAGTCAGACCAACATTGCTACGACCCGTATTCGCACCGACAC” were, in that order, -1.22 ± 0.39 and 2.37 ± 0.096.
In the same order, the values of “ACATTTGTTGATACAACCATAAAATGATAATTACACCCATAAATTGATAATTATGTCACCCATAAATTGATATTGCCTCTGATCATAGTCAGACCAACATTGCTACGACCCGTATTCGCACCGACAC” are -0.72 ± 0.15 and 0.557 ± 0.054.
For the sequence “ACATTTGTTGATACAACCATAAAATGATAATTACACCCATAAATTGATAATTATGTGTCCCATAAATTGATATTGCCTCTGATCATAGTCAGACCAACATTGCTACGACCCGTATTCGCACCGACAC”, the results for the “relative integration efficiency (log2)” value in series [1] and in series [2] were -0.725 ± 0.24 and 1.63 ± 0.16, respectively.
In the same order, the values of “ACATTTGTTGATACAACCATAAAATGATAATTACACCCATAAATTGATAATTCACACCCATAAATTGATATTGCCTCTGATCATAGTCAGACCAACATTGCTACGACCCGTATTCGCACCGACACTG” are -1.06 ± 0.18 and 1.41 ± 0.045.
In the same order, the values of “ACATTTGTTGATACAACCATAAAATGATAATTACACCCATAAATTGATAATTCGACACAAACGCCCGGTCGCGGTAAGAGGATCATAGTCAGACCAACATTGCTACGACCCGTATTCGCACCGACAC” are 0.636 ± 0.17 and 3.748 ± 0.033.
In the same order, the values of “ACATTTGTTGATACAACCATAAAATGATAATTACACCCATAAATTGATAATTCGACCACCCATAAATTGATATTGCCTCTGATCATAGTCAGACCAACATTGCTACGACCCGTATTCGCACCGACAC” are -0.541 ± 0.14 and 0.317 ± 0.33.
With “ACATTTGTTGATACAACCATAAAATGATAATTACACCCATAAATTGATAATTCGCACACCCATAAATTGATATTGCCTCTGATCATAGTCAGACCAACATTGCTACGACCCGTATTCGCACCGACAC”, the “relative integration efficiency (log2)” value in series [1] was -0.551 ± 0.065; in series [2], 0.189 ± 0.39.
In the same order, the values of “ACATTTGTTGATACAACCATAAAATGATAATTACACCCATAAATTGATAATTGTGACACCGAATTTAACTATAACGCTCTGATCATAGTCAGACCAACATTGCTACGACCCGTATTCGCACCGACAC” are -0.766 ± 0.25 and 2.87 ± 0.14.
On to “ACATTTGTTGATACAACCATAAAATGATAATTACACCCATAAATTGATAATTTACACACCCATAAATTGATATTGCCTCTGATCATAGTCAGACCAACATTGCTACGACCCGTATTCGCACCGACAC”, for which the “relative integration efficiency (log2)” value in series [1] is -0.0701 ± 0.25; in series [2] it was 0.268 ± 0.15.
The like results for “ACATTTGTTGATACAACCATAAAATGATAATTACACCCATAAATTGATAATTTAGTCACCCATAAATTGATATTGCCTCTGATCATAGTCAGACCAACATTGCTACGACCCGTATTCGCACCGACAC” were, in that order, -0.447 ± 0.07 and 0.247 ± 0.11.
In the case of “ACATTTGTTGATACAACCATAAAATGATAATTACACCCATAAATTGATAATTTCACACCCATAAATTGATATTGCCTCTGATCATAGTCAGACCAACATTGCTACGACCCGTATTCGCACCGACACT”, the “relative integration efficiency (log2)” value is -0.767 ± 0.17 in series [1] and 0.745 ± 0.092 in series [2].
The like results for “ACATTTGTTGATACAACCATAAAATGATAATTACACCCATAAATTGATACGGCGACACAAACGCCCGGTCGCGGTAAGAGGATCATAGTCAGACCAACATTGCTACGACCCGTATTCGCACCGACAC” were, in that order, -0.726 ± 0.13 and 2.25 ± 0.24.
The like results for “ACATTTGTTGATACAACCATAAAATGATAATTACACCCATAAATTGATACGGCTCACACCCATAAATTGATATTGCCTCTGATCATAGTCAGACCAACATTGCTACGACCCGTATTCGCACCGACAC” were, in that order, -0.622 ± 0.074 and 0.173 ± 0.15.
